Experimental data taken from publication PMC4154870, “The Cofilin Phosphatase Slingshot Homolog 1 (SSH1) Links NOD1 Signaling to Actin Remodeling” (PLoS Pathogens, 2014).

Target: T1, GFP-SSH1 (human, UniProt Q8WYL5 1-1049)
T1 construct: Slingshot homolog 1 (SSH1); also called EGFP-SSH1; WT SSH1; source: HeLa, transiently transfected, in fixed cells
T1 sequence (looked up): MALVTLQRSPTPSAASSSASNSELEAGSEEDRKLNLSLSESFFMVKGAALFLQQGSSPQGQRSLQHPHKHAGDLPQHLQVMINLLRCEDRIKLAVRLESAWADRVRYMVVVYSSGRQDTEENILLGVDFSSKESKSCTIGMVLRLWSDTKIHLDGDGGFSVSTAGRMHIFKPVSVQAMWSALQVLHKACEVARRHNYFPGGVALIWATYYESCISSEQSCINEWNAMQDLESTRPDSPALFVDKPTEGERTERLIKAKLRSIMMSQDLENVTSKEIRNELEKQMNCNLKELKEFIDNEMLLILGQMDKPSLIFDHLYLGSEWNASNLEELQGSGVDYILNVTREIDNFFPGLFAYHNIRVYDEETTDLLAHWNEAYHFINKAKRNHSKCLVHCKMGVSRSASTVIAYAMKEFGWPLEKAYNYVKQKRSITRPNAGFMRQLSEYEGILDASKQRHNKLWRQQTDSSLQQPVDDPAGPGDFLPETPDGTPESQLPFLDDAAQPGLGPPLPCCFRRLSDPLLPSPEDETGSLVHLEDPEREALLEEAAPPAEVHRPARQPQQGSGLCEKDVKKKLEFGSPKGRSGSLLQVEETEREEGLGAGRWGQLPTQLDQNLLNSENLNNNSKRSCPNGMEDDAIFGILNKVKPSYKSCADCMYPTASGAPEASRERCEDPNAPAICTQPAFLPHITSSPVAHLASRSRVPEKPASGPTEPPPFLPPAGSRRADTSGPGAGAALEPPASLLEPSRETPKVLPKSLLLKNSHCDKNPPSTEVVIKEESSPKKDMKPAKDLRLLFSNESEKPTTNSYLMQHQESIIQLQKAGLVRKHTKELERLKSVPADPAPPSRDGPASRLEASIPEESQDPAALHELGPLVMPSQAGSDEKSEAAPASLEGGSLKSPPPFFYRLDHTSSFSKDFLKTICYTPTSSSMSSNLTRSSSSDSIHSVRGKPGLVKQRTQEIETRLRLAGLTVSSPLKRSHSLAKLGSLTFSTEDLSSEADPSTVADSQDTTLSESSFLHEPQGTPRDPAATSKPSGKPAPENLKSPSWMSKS
Experiment: proximity ligation; in situ PLA (Duolink) in transiently transfected HeLa cells, fixed 24 h after transfection; rabbit GFP-specific and mouse Flag-specific primary antibodies; spot area per cell quantified by automated microscopy
Conditions: partners not purified

B1: Flag-NOD1 (receptor, human, UniProt Q9Y239 1-953, looked up)
chain: MEEQGHSEMEIIPSESHPHIQLLKSNRELLVTHIRNTQCLVDNLLKNDYFSAEDAEIVCACPTQPDKVRKILDLVQSKGEEVSEFFLYLLQQLADAYVDLRPWLLEIGFSPSLLTQSKVVVNTDPVSRYTQQLRHHLGRDSKFVLCYAQKEELLLEEIYMDTIMELVGFSNESLGSLNSLACLLDHTTGILNEQGETIFILGDAGVGKSMLLQRLQSLWATGRLDAGVKFFFHFRCRMFSCFKESDRLCLQDLLFKHYCYPERDPEEVFAFLLRFPHVALFTFDGLDELHSDLDLSRVPDSSCPWEPAHPLVLLANLLSGKLLKGASKLLTARTGIEVPRQFLRKKVLLRGFSPSHLRAYARRMFPERALQDRLLSQLEANPNLCSLCSVPLFCWIIFRCFQHFRAAFEGSPQLPDCTMTLTDVFLLVTEVHLNRMQPSSLVQRNTRSPVETLHAGRDTLCSLGQVAHRGMEKSLFVFTQEEVQASGLQERDMQLGFLRALPELGPGGDQQSYEFFHLTLQAFFTAFFLVLDDRVGTQELLRFFQEWMPPAGAATTSCYPPFLPFQCLQGSGPAREDLFKNKDHFQFTNLFLCGLLSKAKQKLLRHLVPAAALRRKRKALWAHLFSSLRGYLKSLPRVQVESFNQVQAMPTFIWMLRCIYETQSQKVGQLAARGICANYLKLTYCNACSADCSALSFVLHHFPKRLALDLDNNNLNDYGVRELQPCFSRLTVLRLSVNQITDGGVKVLSEELTKYKIVTYLGLYNNQITDVGARYVTKILDECKGLTHLKLGKNKITSEGGKYLALAVKNSKSISEVGMWGNQVGDEGAKAFAEALRNHPSLTTLSLASNGISTEGGKSLARALQQNTSLEILWLTQNELNDEVAESLAEMLKVNQTLKHLWLIQNQITAKGTAQLADALQSNTGITEICLNGNLIKPEEAKVYEDEKRIICF
notes: NOD1; the Flag-tagged plasmid is not described in the methods; source: HeLa, transiently transfected, in fixed cells
area covered by PLA spots, against neighbouring GFP-negative cells: ~4 fold
